Here are results for two molecules from US20230383007A1 (BIOSION, published 2023).

Test [1] has as its target T1, human TROP2-his protein (human, UniProt P09758 27-274).
T1 construct: also called biotin labeled human TROP2-his protein
T1 sequence: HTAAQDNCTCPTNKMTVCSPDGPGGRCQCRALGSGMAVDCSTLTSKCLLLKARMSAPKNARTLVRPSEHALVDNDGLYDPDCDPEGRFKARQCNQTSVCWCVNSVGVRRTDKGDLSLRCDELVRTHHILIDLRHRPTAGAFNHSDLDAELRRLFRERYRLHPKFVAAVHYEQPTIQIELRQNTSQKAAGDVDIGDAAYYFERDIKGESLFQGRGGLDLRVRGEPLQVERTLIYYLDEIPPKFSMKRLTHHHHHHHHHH
Put plainly: indirect ELISA on human TROP2; unit taken from the x axis (nM). On the technique in general: ELISA stands for enzyme-linked immunosorbent assay.

In test [2] the target is T1, human TROP2-his protein. Put plainly: competitive ELISA: soluble benchmark pre-mixed with biotin labeled human TROP2-his, added to plate coated with the benchmark (self-competition); unit taken from the x axis (nM).
Test [3] has as its target T1, human TROP2-his protein. Put plainly: SPR Biacore T200; antibody captured on anti-human IgG CM5 chip, TROP2-his as analyte in 2-fold dilutions from 160 nM; 1:1 Langmuir fit. From the text: (§1) The purified anti-TROP2 mouse monoclonal antibodies (mAbs) were characterized for binding affinity and binding kinetics by Biacore T200 system (GE healthcare, Pittsburgh, PA, USA). Briefly, goat anti-human IgG (GE healthcare, Cat #BR100839, Human Antibody Capture Kit) was covalently linked to a CM5 chip (carboxy methyl dextran coated chip from GE healthcare #BR100530) via primary amines, using a standard amine coupling kit (GE healthcare, Pittsburgh, PA, USA) provided by Biacore. Un-reacted moieties on the chip (biosensor) surface were blocked with ethanolamine. The anti-TROP2 antibodies of the disclosure and the benchmark at the concentration of 2 μg/ml were respectively flowed onto the chip at a flow rate of 10 μL/min. Then, serially diluted human TROP2-his protein (prepared in-house with SEQ ID NO: 16), or cynomolgus TROP2-his protein (prepared in-house with SEQ ID NO: 19), 2-fold dilution in HBS-EP⁺ buffer (provided by Biacore) starting at 160 nM, were flowed onto the chip at a flow rate of 30 μL/min. The antigen-antibody association kinetics was followed for 2 minutes and the dissociation kinetics was followed for 10 minutes. The association and dissociation curves were fit to a 1:1 Langmuir binding model using BIAcore evaluation software.
In general terms: Surface plasmon resonance follows binding to a sensor surface in real time, without labels.

The target of test [4] is T2, cynomolgus TROP2-his protein (cynomolgus, UniProt P09758 27-272 (human entry), limits assumed).
T2 construct: also called Cyno TROP2-his; Cynomolgus monkey TROP2-his protein
T2 chain: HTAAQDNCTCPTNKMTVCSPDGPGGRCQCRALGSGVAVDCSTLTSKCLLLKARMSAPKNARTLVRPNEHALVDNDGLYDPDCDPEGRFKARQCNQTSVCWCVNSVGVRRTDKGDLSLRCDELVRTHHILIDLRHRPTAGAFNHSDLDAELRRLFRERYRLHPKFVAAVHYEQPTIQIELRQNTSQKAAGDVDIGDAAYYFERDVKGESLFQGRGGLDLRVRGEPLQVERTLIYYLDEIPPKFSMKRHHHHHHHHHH
The description is as above.
From the text: as §1

Test [5] concerns the target T3, full length human TROP2 on 293F-TROP2 cells (clone ID #3A8) (human, UniProt P09758 27-323).
T3 sequence: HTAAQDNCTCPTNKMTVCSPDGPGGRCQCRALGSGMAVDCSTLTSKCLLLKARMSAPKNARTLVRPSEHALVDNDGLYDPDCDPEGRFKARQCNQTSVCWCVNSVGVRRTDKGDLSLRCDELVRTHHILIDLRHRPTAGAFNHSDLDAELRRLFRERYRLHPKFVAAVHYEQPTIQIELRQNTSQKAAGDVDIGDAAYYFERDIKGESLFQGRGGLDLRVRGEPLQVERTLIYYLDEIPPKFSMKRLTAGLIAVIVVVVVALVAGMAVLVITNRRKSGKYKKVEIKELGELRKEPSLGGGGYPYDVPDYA
Put plainly: cell based binding FACS (MFI) on 293F-TROP2 cells expressing human TROP2; unit taken from the x axis (nM). The procedure: Cells were washed twice with FACS buffer, and added with 100 μL/well R-Phycoerythrin AffiniPure Goat Anti-Human IgG, Fey fragment specific (1:1000 dilution in FACS buffer, Jackson Immunoresearch, Cat #109-115-098). Following an incubation of 40 minutes at 4° C. in dark, cells were washed twice and re-suspended in FACS buffer. Fluorescence was measured using a Becton Dickinson FACS Canto II-HTS equipment, and the MFI (mean fluorescence intensity) was plotted against antibody concentration. Data was analyzed using Graphpad Prism software and EC₅₀ values were reported.

The target in test [6] is T1, human TROP2-his protein. Put plainly: SPR Biacore; antibody captured on anti-human IgG chip, 40 nM human TROP2-his as analyte.
From the text: as §1
For the BIAcore test, cell supernatants containing the 01-9F-Fc variants were respectively flowed onto the chip instead of the purified anti-TROP2 antibodies, at a flow rate of 10 μL/min, and 40 nM human TROP2-his proteins (prepared in-house with SEQ ID NO: 16) in HBS-EP⁺ buffer (provided by Biacore), instead of serially diluted human TROP2-his proteins, were flowed onto the chip at a flow rate of 30 μL/min.

A word on the EC50: it is the concentration giving half of the maximal effect. Read a low EC50 as greater potency. As usually defined, the IC50 is the concentration needed to halve the response being measured. Broadly, the Kd is the constant that tells how readily two partners part at equilibrium. By koff is commonly meant the first-order rate constant of dissociation. The low end stands for slow dissociation, the high end for fast dissociation. The term kon denotes the rate constant with which the complex forms. Higher therefore signals faster complex formation.

B1: sacituzumab (benchmark, an analog of sacituzumab, in house made) (antibody, human IgG1, kappa, V domains shown)
VH: SVQLQQSGSELKKPGASVKVSCKASGYTFTNYGMNWVKQAPGQGLKWMGWINTYTGEPTYTDDFKGRFAFSLDTSVSTAYLQISSLKADDTAVYFCARGGFGSSYWYFDVWGQGSLVTVSS
VL: DIQLTQSPSSLSASVGDRVSITCKASQDVSIAVAWYQQKPGKAPKLLIYSASYRYTGVPDRFSGSGSGTDFTLTISSLQPEDFAVYYCQQHYITPLTFGAGTKVEIKR
notes: also called BM; BM1
On to B1, for which the EC50 in test [1] is 0.162 nM. The IC50 in test [2] amounted to 0.563 nM. Further, in test [3], the affinity, expressed as Kd, was 0.409 nM; the koff is 0.000116 s⁻¹; the on-rate (kon) was 284000 M⁻¹ s⁻¹. In test [4], this molecule gave a Kd of 0.874 nM, a koff of 0.000224 s⁻¹ and a kon of 257000 M⁻¹ s⁻¹. Further, the EC50 in test [5] is 0.706 nM.

B2: single domain antibody 01-9F (VHH)
VHH: QVQLVESGGGSVQAGGSLRLSCVVSGLPYERYCVAWFRQGPGKEREGVARILSDGTTSYSDSVKGRFTISKDNAKNTLYLQMNSLKSEDTATYYCAAEAFRPFTPSDGDCTTVLGIDYWGKGTPVTVSS
Consider B2, for which the EC50 amounted to 0.104 nM in test [1] and 0.53 nM in test [5]. Further, the dissociation constant (Kd) in test [3] is 0.0262 nM; in test [4], 0.558 nM; in test [6], 0.202 nM. Further, the koff in test [3] amounted to 8.11e-06 s⁻¹; in test [4] it was 0.000161 s⁻¹; in test [6] it was 0.000101 s⁻¹. Moreover, the kon in test [3] is 309000 M⁻¹ s⁻¹; in test [4], 287000 M⁻¹ s⁻¹; in test [6] it was 502000 M⁻¹ s⁻¹.
